Experiment: soluble on expression in E. coli; label from the status in PepcDB or PDB records

| Sequence | soluble on expression in E. coli |
| --- | --- |
| MSKVALFAGGDLSYISRDFDYFVGIDRGSLFLLENGLPLNMAVGDFDSVSQKAFTDIKEKAELFITAHPEKNDTDTELALKEVFARFPEAEVTIFGAFGGRMDHLLSNIFLPSDPGIAPFMAQIALRDQQNMITYRPAGQHLIHQEEGMTYVAFMAEGEADLTITGAKFELTQDNFFKKKIYSSNAFIHQPITVSLPSGYLIIIQSKDWS | soluble |
| MSLADHIDAIKKEMTSLSSQFNSNKSELERSKQDLSSMQLQMQQQMNDSVQQDLQKAHDTSKKLDNLARTFLALITDPSQQSQLLAEFESISKNGTPQMPVMTPPMMNAVAAMQPHMMMRNPMLNAMGGASPRVSGKGGAPQNGGMNGMSMMQHMQMQAFQAQMMQAQMFQQMPMMMPGMVPGMPPGMAGLPGMMPPNNMAAAMQHFNAQMAAAASVAVSTPSRNPSTSGAASRTRTPLTTSATNSPRPTTEPTIKEEEPQTMEHDVAAAVAATTATATIKQEENSTVAVA | not soluble |
| MSLAEPVLGDDGLYQLDWYLQSFLDLKEDLEGATAKGKRFAILWGLKGCPYCKKLHDVHMRDPAIESYIRDNFEIVHLNHIGAREVTDFDGSKLSEKAFAQAYGIRFTPSLQFFPESADGLAAKKPQDREVARMPGLLEPPEFLAMFKYVREKGYQSMPFTDWLKREGHHHHHH | soluble |
| MSLAFVPHVPRHSRGDNPPSASTASPAVLTLTGERTIPDLDIENYWFRRHQVVYQRLAPRCTARDVLEAGCGEGYGADLIACVARQVIAVDYDETAVAHVRSRYPRVEVMQANLAELPLPDASVDVVVNFQVIEHLWDQARFVRECARVLRGSGLLMVSTPNRITFSPGRDTPINPFHTRELNADELTSLLIDAGFVDVAMCGLFHGPRLRDMDARHGGSIIDAQIMRAVAGEGHHHHHH | not soluble |
| MSLAGVSVGTVDRVIHNRGRVSEENRKKVQTILEMVHYQPNLMARSLASKKQYHFVAITPSFTHGEYWEAISDGIDKAASEMESYNITITKLFFDQYNNKTFDDIVRNLLDEKVDGVLIATLFTDSVIRLSQELDRNEIPYVYVDSNIEGQHQLAYFGTESYDAGVIAARLLTDKISSTSDILMARIIHSGKNDSNQGKNRREGFCHYLKETGFTGNLHEVELKINDSVYNFIKLDEIFEANATIEGGIIFNSTCYILGNYLKARGMQKVKLVGYDLIERNTQLLSDGVITALVAQRPERQGYDGIKSLCNHLLFKQNPEKVNLMPIDILLKENLKYYLNNKEGHHHHHH | soluble |
| MSLAHFSVLPPEINSLRMYLGAGSAPMLQAAAAWDGLAAELGTAASSFSSVTTGLTGQAWQGPASAAMAAAAAPYAGFLTTASAQAQLAAGQAKAVASVFEAAKAAIVPPAAVAANREAFLALIRSNWLGLNAPWIAAVESLYEEYWAADVAAMTGYHAGASQAAAQLPLPAGLQQFLNTLPNLGIGNQGNANLGGGNTGSGEGHHHHHH | not soluble |
| MSLAHKFDPSKIKKLDDPSRLELFDPEKVLKEFGLKEGMTVLDVGTGAGFYLPYLSKMVGEKGKVYAIDVQEEMVNYAWEKVNKLGLKNVEVLKSEENKIPLPDNTVDFIFMAFTFHELSEPLKFLEELKRVAKPFAYLAIIDWKKEERDKGPPPEEVYSEWEVGLILEDAGIRVGRVVEVGKYCFGVYAMIVKQEEENPLMNVPFKIPPGEGHHHHHH | soluble |
| MSLAIWAAGDTAGVATVVRTLRSAPRPPGAAMVVAPDGSVSGSVSGGCVEGAVYELAAEVAQTGIPRLEHYGVSDDTAFAVGLTCGGIIDVFVEPVSRATFPELGELADDIGAQRPVAIATVIAHPDERRVGRRLVIRPDTKSPVTGSLGSARADAAVIDDARGLLAVGRSEILEYGPDGQRRGEGMEVFVSSHAPRPRMLVFGAIDFAAALARQGSFLGYRVTVCDARAVFATPARFPTADDVVVAWPHRYLAAQAEAGGIDERTVICVLTHDPKFDVPVLEVALRLGVGYVGAMGSRKTHDDRMDRLRAAGLTDAELSRLSSPIGLDLGARTPEETAVSIAADIIARRWGGGGRPLADIAGRIHHDAQVAGEFKDYLTRHEGHHHHHH | soluble |
| MSLAKELLIKNACVYDPLNGIEGEVMDIGVKDGKIVDPSEVDESKAKVIDAEGRLTMAGGVDIHAHVAGPKVNVGRIFRPEDSRRLQVAIKKLGTRSGTGFSVPSTTITGYLYAQMGYTTVMEAATPPLLTRHTHEEIRDTPILDEGAYTLMANNWILYEYIKEGELEKAAAYAAWLLRATKGFVIKMVNPGGTEAWGWGENVHSLDDPVPYFEITPAEIYQNYVKINEMLGLPHSIHIHPNLLGEPGNYEITTDSWDVIKKTGVEPNPEIGEREQVVHNTHVQFHSYGGDSWPTFESKAEEVAKYLNKNDHVTVDLGAVTLDETTTMTADGPLEWELQELTGFKWANYDVELETGSGVVPFIYSPKNPVHSVQWAIGLEIALLTENPWQVVISTDHPNAGPFIRYPRIIAWLMSEPYREEWIENVHPWVGQRAAIATIDREYTWTDITITTRAAPAKMLGLSDRIGHLGEGAYAHIAIYDIKPDEVDPSRDYEEVEKAMEQAWLVVKDGEIVVQEGVVVNEPVGRTYWVDVKVPEDLLEEVKKDLETKFRRYYSVNLGNYQVQDVYIPKEERIVIDARDRLSEGHHHHHH | soluble |
| MSLAKIPVLEIFGPTIQGEGRVIGRKTMFVRTAGCDYRCSWCDSAFTWDGSAKGDIKLMTAEEIYDELKRIGGDLFNHVTISGGNPALIKGIQELVDLFQDKGIFSALETQGSKFQPWMTQIDDLTISPKPPSSTMTPDLKKLDEVITQCVPSSLNLKVVVFDDKDYDFAKMIHHRYPDIPFYLQVGNPYLSDSVDNHTEKLLERYEQLVDLVMQSNDMNHVYVLPQLHTLLWSNKKGVEGHHHHHH | soluble |
| MSLAKLPVGGIWKARLVLNEMQWSPYIKVATFSADITLDVTDKNNGAIYLPAFGSATPRVDLNLRTQPLSTAPGGEVSGQANIDMCLYDGYNSNSPWLKVALSDLQTVAGRPADVFSLRRDGSSGTAAADRVDYRITLNYNNQPQTVNNGQDITLASVNSTLIRPVVMPGIAFPVICTPTPLTLNVLPFAKLSKAAGHFSGTLRVTLSADALAEGHHHHHH | not soluble |
| MSLAKPFDAYISVTVKARGNGTVHLGPIHKRWSRLDMGQFLLGGSRFVDSQRQEFIYYFHPGDMKPPLNVYFSGYRTAEGFEGYYMMKRMNAPFLLIGDPRVEGGSFYIGSSEYEQGIINVIDETLEKLNFKSHELILSGLSMGSFGALYYGAQLNPQAIIVGKPLVNIGTIAEHMRLLRPEEFGTALDVLVSNEGDTSQASIQALNQKFWQTFQKKSLSQTVFAIAYMQHDDYDPHAFQELLPVLTAHQARVMNRSIPGRHNDDSEGHHHHHH | not soluble |
| MSLAKSYNAGINIIPTPRSLEKREGSFKLSDGVSIGAITPEAKKIATYFAAKISLATGYDVKVEDKGEITLVLDSCATFSPEGYALDVESSRVQVTACSPRGLFYGMQSFLQLLPAEIESAGIVRDVDWEAPAANIIDSPRFAYRGIHMDPCRHFMTVEEVKKQIDVLSMFKINTIHWHLTDDQGWRIEIKQYPGLAEIGGRRIEGEGVEYGPFYYTQEEIKDIVSYAAERFITIIPELEIPGHELAAISAYPGLSCKGDPVTPRNIWGVEDIVMCPGKESVFTFLENVIDEMVALFPGTYFHIGGDECPKESWKSCPLCQKRILEEGIKPDGKHTSEQLLHTYVVERIGKYLARYDKKIIGWDEILEGKPDSTATIMSWRGDAGGISAALSGHDAIMSPGPNGLYLDYYQGDSKIEPIAIGGCSTLEKVYNYNPVPDTLVLIGKDHHIIGVQANNWSEYFYNNDIREYHMYPRSLALAEVAWTDAKRKNYVDFERRINNAYVRLDGHGVNYHIPLPEQPGGSCDHIAFTDSVSLEFTTSRPISLVYTLDGTEPGVSSEIYTSPLSFYQNGILKIASLLSSGKLSKVRTIQIEKQVLLPAVDVEGSFHGLNMEVTYGMFLNMQEFMKTGKSVDVSTDIRETGELTSFVPSTNSMRDVRQYAAVATGFIDIPENGEGHHHHHH | not soluble |
| MSLAKTVLVTGASGFIGSHLVGRCLADGCRVKALVRKGNACIDSLRASGVEVIEGDVRDATAVDAAVRESDLVLHAAALTSDWGKMQEFIDINVGGTRNVCEASLRHGVGRLVHVSSFECFDHHLLGRIDEQTPYKARKQSYPDTKIGGTNEVWAAIKRGLSASILYPVWVYGPGDRTLFPLLADSILRRQLFFWARNAPMSMIYIDNLVDLTMLAASRPEAVGEAFMACDGEAITFEEVCRRVAVAIGSPVPSLHLPFGMVRSVAGVMEFVWRIAGSKKRPLLTRQAVDVLASRALADVSKARTMLGWQSHVPQEEGIRRTLEWLVTVDPARWKVKEGHHHHHH | soluble |
| MSLALLLRVRRLRLDRAERAQGRQLLRVRAAAQEHTERQAAQRDYRDWRLAEEQRLFLACQAAMLDRRRLEAWQQQVGLLREKEAGLEQDCAEAAQRLEGERERLRQCRRELLERQRQLEKFAELERHVDAERQGLRERSEEGELEEFTRHETWPCSSLEHHHHHH | not soluble |
| MSLALVYSRALSGMNAPLVEVEAHLANGLPHFNIVGLPDMEVKESRDRVRAAIIQSGFEFPAKKITVNLAPADLPKESGRFDLPIAIGILAASGQVAPEKLEEYEFAGELALSGLLRPVRGALAMAWQGMQAKRAFVLPEENAGQAAVMRGITVYGARSLGEVAAHLNGIEPLAQTECQVPQMPFEHGGQPDLCDVKGQHTARLALEIAAAGGHSLLMMGPPGTGKSMLSQRLPGILPPLTEDELVEVWALRSLLPNHQQQLDSNRPFRSPHHSASAAAMVGGGSDPRPGEISLAHHGVLFLDELPEFDRKVLEVLREPLENGEIHISRAARQAVYPAKFQLVAAMNPCPCGYLGHPVKPCRCTPESVARYRSKISGPLLDRIDLTIEVPSLSAAELMQQEAGESSASVLERVIAARDKQYARQGKVNAALSVSELDTSARIQKEAQEALGGLLEKLSLSARSFHRIMRVARTLADLAGDEEVGRSHVMKAIGFRRAL | not soluble |
| MSLANGIEFNQNPASVFNSNSLDFELESQQLTQKNSSNTSSPLINLQNELAMITSSSLSETIEGLSLGYRKGSARKEEEGTTIEKLLNEMQELLTLTDSDKIKELSLKNSGLLEQHDPTLAMFGNMPKGEIVALISSLLQSKFVKIELKKKYAKLLLDLLGEDDWELALLSWLGVGELNQEGIQKIKKLYEKAKDEDSENGASLLDWFMEIKDLPEREKHLKVIIRALSFDLSYMSSFEDKVRTSSIISDLCRIIIFLSLNNYTDIIAISIKKDKDVILNEMLSIIEHVWLTEDWLLESPSRVSIVEDKHVYYFHLLKEFFASLPDACFIDNEQRSNTLLMIGKVIDYKEDVMEGHHHHHH | soluble |
| MSLANLKVNLYGMEFLNPIMTAAGPGAKDGALCQEAAKGGAGAICTKTISVLPADVPRPCMAKTNSGFLNTELWSELPKEQWIEEEYKKVKETGLPVIVSMGYSAEQIAEVAPLVKPYADAVELSTHYVGTDVAPIVNALKAAKAVLDVPVFMKMSPHTDIQTIAKAVEEAGADGLVMINSFGPCMAIDVNTGYPIMGSKAGYGWLSGAPIRPLAIRCIYEASQVVNIPIIGVGGITCGKDVAEMMMAGASAVQVCTEAILKGPSIYGKIAKELNEFLDENGYADVNEIKGLTHKKMAARGFRTHSVAPVVDEGHHHHHH | soluble |
| MSLAPFTTNPRRFDPYKNFKFRVKWDGRYVAGISKVGALKRSTEVIEHREGGDPSTGRKSPGRTKYDAISMERGVTHDLDFEQWANKVWNFGAGLGSEVSLADFRKDLIIDVFNEAGQKVMSYQVFRCWVSEYQALPDLDANANAIAIQSMKLENEGWLRDVAVAEPAEPSFTIPAEGHHHHHH | soluble |

Reference: the DeepSol protein solubility set
